# Measurements from patent publication US20030133971.
# Tested on: recombinant SDI-1 protein
substance,measurement,value
CDK2 (kinase assays of Example 11),phosphorylation of histone H1,The recombinant SDI-1 protein of the present invention inhibits the phosphorylation of histone H1 by CDK2
